Measurements reported in patent US6821728B1, “Screening system” (priority 1998, dated 2004).

Key:
mutated p53 R273H = target: T1, mutated p53 R273H (Homo sapiens, UniProt P04637, R273H); assay: transactivation experiments in yeast strain YDE4xp53 (LacZ expression, beta-galactosidase); assay type: cell-based; conditions: peptide expressed from the pESBA-ADH or pESBA-ACT vector in yeast
T1 construct: expressed in transfected cells; host or cells: Saccharomyces cerevisiae strain YDE4xp53 (derivative of JPY9)
Excerpt: The agonistic action of the inventive screening system has been shown for the tumor suppressor gene p53. The tumor suppressor gene p53 is mutated in more than 50% of all human cancers which results in the inability to properly bind to the p53 binding site sin target genes responsible to induce cell cycle arrest or apoptosis. The four most commonly found mutations occur in the DNA binding domain of p53 and lead to a single amino acid substitution. […] This opens the possibility to use the peptide libraries according to the present invention to screen for peptides which restore the mutated p53 to wild type activity or to use this system to screen for agonistic actions of peptides in general. […]
Yeast strain YDE4xp53 was transformed with the conventional lithium acetate method (Methods in Yeast Genetics, a Cold Spring Harbor Laboratory Course Manual, Cold Spring Harbor Laboratory Press, 1994) with wild type and mutated p53 expression vectors. Transactivation potential of the different p53 molecules was determined by measurement of the LacZ expression on X-gal plates and liquid beta-galactosidase assays as described (Escher and Schaffner, Gene Activation at a Distance and Telomeric Silencing . . . , Mol. Gen. Genet. (1997) 256; 456-461). […]

mutated p53 (p53 R273H) = mutated p53 (p53 R273H) (Homo sapiens, UniProt P04637, R273H); conditions: synthetic peptide fused to the Drosophila Antennapedia internalisation domain (17 amino acids); cited from earlier work
[1] = target: T2, interaction between GAL4 and GAL11P (Saccharomyces cerevisiae, UniProt P19659, N342I); assay: inhibition of GAL4(1-100)-GAL11P interaction and reporter gene (LacZ/URA3) activation in yeast; assay type: cell-based; conditions: expressed from a high-copy plasmid (2 μm) in yeast, vector pESBA-ADH1
T2 construct: expressed in transfected cells; host or cells: Saccharomyces cerevisiae, JPY9 derivative (gal4Δ11) with integrated pESBA-17mer-URA3
T2 sequence (P19659 whole entry N342I, the tested form may be a part): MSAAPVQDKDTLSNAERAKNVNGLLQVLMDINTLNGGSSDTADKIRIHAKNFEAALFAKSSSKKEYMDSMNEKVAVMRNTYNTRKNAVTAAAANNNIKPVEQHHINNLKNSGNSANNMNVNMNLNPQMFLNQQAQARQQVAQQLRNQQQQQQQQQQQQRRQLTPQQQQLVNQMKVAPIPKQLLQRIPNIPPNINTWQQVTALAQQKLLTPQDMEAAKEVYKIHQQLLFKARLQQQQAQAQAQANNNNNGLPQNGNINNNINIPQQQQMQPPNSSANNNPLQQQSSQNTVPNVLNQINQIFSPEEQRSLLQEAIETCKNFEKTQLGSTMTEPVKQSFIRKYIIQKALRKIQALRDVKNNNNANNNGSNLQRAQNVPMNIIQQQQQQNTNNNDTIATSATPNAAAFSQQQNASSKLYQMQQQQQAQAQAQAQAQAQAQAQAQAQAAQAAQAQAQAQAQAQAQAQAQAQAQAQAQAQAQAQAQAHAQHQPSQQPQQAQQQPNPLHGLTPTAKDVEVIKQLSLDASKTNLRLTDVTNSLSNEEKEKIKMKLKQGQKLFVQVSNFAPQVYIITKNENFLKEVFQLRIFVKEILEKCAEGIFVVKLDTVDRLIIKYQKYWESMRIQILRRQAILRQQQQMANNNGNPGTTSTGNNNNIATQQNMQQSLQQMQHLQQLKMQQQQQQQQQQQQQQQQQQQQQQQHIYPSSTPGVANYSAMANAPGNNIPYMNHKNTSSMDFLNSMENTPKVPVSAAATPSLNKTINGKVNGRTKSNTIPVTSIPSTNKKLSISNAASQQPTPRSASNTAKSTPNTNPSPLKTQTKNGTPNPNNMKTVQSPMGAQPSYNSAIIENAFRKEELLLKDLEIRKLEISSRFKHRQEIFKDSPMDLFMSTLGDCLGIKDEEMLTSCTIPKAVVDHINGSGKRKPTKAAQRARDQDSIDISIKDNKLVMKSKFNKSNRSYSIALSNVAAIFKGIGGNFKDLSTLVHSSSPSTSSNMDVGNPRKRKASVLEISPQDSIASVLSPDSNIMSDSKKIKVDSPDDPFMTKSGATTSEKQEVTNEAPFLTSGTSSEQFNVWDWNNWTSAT
Excerpt: To test the antagonistic action of short protein fragments or peptides in yeast, it was checked whether high production of a peptide could inhibit a defined molecular interaction.
The yeast strain used in these experiments is a derivative of JPY9 (MATα, ura3-52, his3Δ200, leu2Δ1, trp1Δ63, lys2Δ385, gal4Δ11) (A. Barberis et al., Cell, Vol. 81, 359-368) in which the reporter construct pESBA-17mer-URA3 was integrated at the his3 locus. Integration through homologous recombination was piloted by linearisation of the reporter plasmid at the XhoI site prior to yeast transformation. Expression of the URA3 gene was exploited to select for stable integrants on ura-media. […] Upon selection for integration of the reporter construct, this plasmid was readily cured from yeast cells by negative selection for URA3 expression on media containing 5-FOA (ref. Guide to Yeast Genetics and Molecular Biology)
Activation of the divergent LacZ and URA3 reporter genes in the yeast strain described above was induced by co-expression of the DNA-binding domain of GAL4 (amino acid residues 1-100) and GAL11P. GAL4(1-100) was expressed from the plasmid pRJR217 (Y. Wu et al., Quantification of Putative Activator- Target Affinities . . . , EMBO J. 15, 3951-3963, 1996), while GALllP was expressed from pSO28 (A. Barberis et. al., Cell Vol. 81, 359-368). […]

| Substance | reactivation of mutated p53 R273H in transactivation experiments (mutated p53 R273H) | restoration of DNA binding activity of the mutated p53 (mutated p53 (p53 R273H)) | inhibition of GAL4-GAL11P protein-protein interaction and its effect on gene expression [1] |
| --- | --- | --- | --- |
| 22mer peptide 46: 22 amino acid long peptide stemming from the carboxy-terminal part of p53 (361-382) (GSRAHSSHLKSKKGQSTSRHKK; UniProt P04637 361-382, looked up, fragment) | sufficient to partially reactivate mutated p53 R273H | can restore DNA binding activity of the mutated p53 |  |
| short protein fragment: peptide comprising the GAL4 residues 58-97, known to contain the GAL11P-interacting sequence, overexpressed from vector pESBA-ADH1 |  |  | could be specifically inhibited |
